# Laboratory results reported in article PMC6363796, “Identification and characterization of a direct activator of a gene transfer agent”.
# T1: GafA (Rhodobacter capsulatus, UniProt D5AUH1 1-382)
# T1 sequence: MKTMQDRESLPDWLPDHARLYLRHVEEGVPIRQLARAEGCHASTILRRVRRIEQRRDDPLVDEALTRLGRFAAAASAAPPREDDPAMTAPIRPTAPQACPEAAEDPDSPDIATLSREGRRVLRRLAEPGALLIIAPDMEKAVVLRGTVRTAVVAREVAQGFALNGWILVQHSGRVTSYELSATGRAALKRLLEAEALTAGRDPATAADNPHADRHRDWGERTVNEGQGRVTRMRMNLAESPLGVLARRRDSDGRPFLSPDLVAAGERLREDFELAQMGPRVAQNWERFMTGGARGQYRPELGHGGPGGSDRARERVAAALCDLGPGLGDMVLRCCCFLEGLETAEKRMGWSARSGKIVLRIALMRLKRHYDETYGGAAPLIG
# T2: GtaR (Rhodobacter capsulatus, UniProt D5AM23 1-203)
# T2 sequence: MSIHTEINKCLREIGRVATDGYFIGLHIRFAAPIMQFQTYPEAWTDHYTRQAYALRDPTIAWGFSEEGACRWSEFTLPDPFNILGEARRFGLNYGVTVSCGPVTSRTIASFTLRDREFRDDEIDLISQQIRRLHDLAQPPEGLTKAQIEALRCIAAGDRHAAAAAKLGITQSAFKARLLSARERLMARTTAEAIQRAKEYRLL
# T3: CtrA (Rhodobacter capsulatus, UniProt D5ATW9 1-237)
# T3 sequence: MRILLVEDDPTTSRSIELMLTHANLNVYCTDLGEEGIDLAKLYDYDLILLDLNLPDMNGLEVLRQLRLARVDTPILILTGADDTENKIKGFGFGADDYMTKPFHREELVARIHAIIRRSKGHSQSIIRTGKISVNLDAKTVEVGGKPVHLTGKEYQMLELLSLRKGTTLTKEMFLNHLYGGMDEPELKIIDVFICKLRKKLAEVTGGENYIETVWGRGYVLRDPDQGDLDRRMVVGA
# B1: pGTA5 (dsDNA)
# DNA 1: GGCATGCTAGGAGAGGTGGGCAAGCGCCGCGGGTGACCGTGTGCGCTTTT
# DNA 2: AAAAGCGCACACGGTCACCCGCGGCGCTTGCCCACCTCTCCTAGCATGCC
# B2: pGTA4 (dsDNA)
# DNA 1: TTCATTTCGCTCGTGCGGACAGGCATGAGAGGCGGGTCACGCAAGACATG
# DNA 2: CATGTCTTGCGTGACCCGCCTCTCATGCCTGTCCGCACGAGCGAAATGAA
# B3: pGTA3 (dsDNA)
# DNA 1: GCGCCGCGGGTGACCGTGTGCGCTTTTTTCATTTCGCTCGTGCGGACAGG
# DNA 2: CCTGTCCGCACGAGCGAAATGAAAAAAGCGCACACGGTCACCCGCGGCGC
# B4: pGTA1 (dsDNA)
# DNA 1: TCCGGGGTTTTTTCTTTTCAGCGGGTGCAACCCTGAATATAGCACTTGAC
# DNA 2: GTCAAGTGCTATATTCAGGGTTGCACCCGCTGAAAAGAAAAAACCCCGGA
# B5: pGafA_50 (gafA promoter) (dsDNA)
# DNA 1: TCGAGATCGCCCCATTTCTTAACCAAGGGGTAACCAAAGCAACCCACGGT
# DNA 2: ACCGTGGGTTGCTTTGGTTACCCCTTGGTTAAGAAATGGGGCGATCTCGA
# Key:
# GafA = target: T1, GafA; assay: EMSA; 2 uM GafA; 80 nM Cy5-dsDNA, 25 mM HEPES pH 8.0, 50 mM K-glutamate, 50 mM MgSO4, 1 mM DTT, 0.1 mM EDTA, 0.05% Triton X-100, 1 ug poly dI:dC, 4% glycerol, 30 C 15 min; GtaR: 10 mM HEPES pH 8, 40 mM NaCl, 37 C 30 min; PCR products: pGTA 2 ng/ul, unlabelled 100 ng; details: protein: recombinant; tags: His6 (pCMF176) or His6-MBP (pCMF193); label: 5'-Cy5 (one strand); blunt
# GtaR = target: T2, GtaR; assay: EMSA; binding detected at 375 nM protein or above; GtaR buffer; 80 nM Cy5-dsDNA, 25 mM HEPES pH 8.0, 50 mM K-glutamate, 50 mM MgSO4, 1 mM DTT, 0.1 mM EDTA, 0.05% Triton X-100, 1 ug poly dI:dC, 4% glycerol, 30 C 15 min; GtaR: 10 mM HEPES pH 8, 40 mM NaCl, 37 C 30 min; PCR products: pGTA 2 ng/ul, unlabelled 100 ng; details: protein: recombinant; tags: His6 (pEHisTEV, N-terminal); chain copies: 2; label: 5'-Cy5 (one strand); blunt
# CtrA = target: T3, CtrA; assay: EMSA; 80 nM Cy5-dsDNA, 25 mM HEPES pH 8.0, 50 mM K-glutamate, 50 mM MgSO4, 1 mM DTT, 0.1 mM EDTA, 0.05% Triton X-100, 1 ug poly dI:dC, 4% glycerol, 30 C 15 min; GtaR: 10 mM HEPES pH 8, 40 mM NaCl, 37 C 30 min; PCR products: pGTA 2 ng/ul, unlabelled 100 ng; details: protein: recombinant; tags: His6 (pEHisTEV, N-terminal); chain copies: 2; label: 5'-Cy5 (one strand); blunt
Binder,binding result (GafA),binding result (GtaR),Kd (CtrA) [nM]
B1,no binding,–,–
B2,no binding,–,–
B3,no binding,–,–
B4,no binding,–,–
B5,–,binds,54.9
